{"source": "the Human Domainome abundance scans (Beltran et al. 2025)", "parents": {"B1": {"name": "E3 ubiquitin-protein ligase TRIM36, residues 208 to 252; numbered along this chain, Q9NQ86 (parent)", "chain": "KILMCPEHETERINMYCELCRRPVCHLCKLGGNHANHRVTTMSSA"}}, "note": "± gives the uncertainty stated by the source.", "data": [{"variants_of": "B1", "test": "abundance fitness (aPCA) (normalised: wild type 0, dead -1); higher = more abundant; growth selection in yeast, the domain comes from the species named", "details": "Homo sapiens", "values": [{"variant": "KILMCPEHETERINMYCELCRRPVCHNCKLGGNHANHRVTTMSSA", "note": "[L27N]", "abundance fitness": "0.005 ± 0.12"}, {"variant": "KILMCPEHETERINMYCELCRRPVCHECKLGGNHANHRVTTMSSA", "note": "[L27E]", "abundance fitness": "-0.058 ± 0.05"}, {"variant": "KILMCPEHETERINMYCELCRRPVCHACKLGGNHANHRVTTMSSA", "note": "[L27A]", "abundance fitness": "0.052 ± 0.05"}, {"variant": "KILMCPEHETERINMYCELCRRPVCHDCKLGGNHANHRVTTMSSA", "note": "[L27D]", "abundance fitness": "-0.202 ± 0.084"}, {"variant": "KILMCPEHETERINMYCELCRRPVCHTCKLGGNHANHRVTTMSSA", "note": "[L27T]", "abundance fitness": "0.095 ± 0.081"}, {"variant": "KILMCPEHETERINMYCELCRRPVCHRCKLGGNHANHRVTTMSSA", "note": "[L27R]", "abundance fitness": "0.015 ± 0.044"}, {"variant": "KILMCPEHETERINMYCELCRRPVCHQCKLGGNHANHRVTTMSSA", "note": "[L27Q]", "abundance fitness": "0.019 ± 0.061"}, {"variant": "KILMCPEHETERINMYCELCRRPVCHMCKLGGNHANHRVTTMSSA", "note": "[L27M]", "abundance fitness": "-0.092 ± 0.089"}, {"variant": "KILMCPEHETERINMYCELCRRPRCHLCKLGGNHANHRVTTMSSA", "note": "[V24R]", "abundance fitness": "-0.44 ± 0.055"}, {"variant": "KILMCPEHETERINMYCELCRRPLCHLCKLGGNHANHRVTTMSSA", "note": "[V24L]", "abundance fitness": "-0.129 ± 0.058"}, {"variant": "KILMCPEHETERINMYCELCRRPPCHLCKLGGNHANHRVTTMSSA", "note": "[V24P]", "abundance fitness": "-0.501 ± 0.064"}, {"variant": "KILMCPEHETERINMYCELCRRPWCHLCKLGGNHANHRVTTMSSA", "note": "[V24W]", "abundance fitness": "-0.351 ± 0.056"}, {"variant": "KILMCPEHETERINMYCELCRRPQCHLCKLGGNHANHRVTTMSSA", "note": "[V24Q]", "abundance fitness": "-0.431 ± 0.08"}, {"variant": "KILMCPEHETERINMYCELCRRPMCHLCKLGGNHANHRVTTMSSA", "note": "[V24M]", "abundance fitness": "-0.133 ± 0.066"}, {"variant": "KILMCPEHETERINMYCELCRRPCCHLCKLGGNHANHRVTTMSSA", "note": "[V24C]", "abundance fitness": "-0.107 ± 0.11"}, {"variant": "KILMCPEHETERINMYCELCRRPNCHLCKLGGNHANHRVTTMSSA", "note": "[V24N]", "abundance fitness": "-0.49 ± 0.09"}, {"variant": "KILMCPEHETERINMYCELCRRPSCHLCKLGGNHANHRVTTMSSA", "note": "[V24S]", "abundance fitness": "-0.446 ± 0.059"}, {"variant": "KILMCPEHETERINMYCELCRRPACHLCKLGGNHANHRVTTMSSA", "note": "[V24A]", "abundance fitness": "-0.153 ± 0.056"}, {"variant": "KILMCPEHETERINMYCELCRRPDCHLCKLGGNHANHRVTTMSSA", "note": "[V24D]", "abundance fitness": "-0.453 ± 0.094"}, {"variant": "KILMCPEHETERINMYCELCRRPECHLCKLGGNHANHRVTTMSSA", "note": "[V24E]", "abundance fitness": "-0.293 ± 0.062"}, {"variant": "KILMCPEHETERINMYCELCRRPKCHLCKLGGNHANHRVTTMSSA", "note": "[V24K]", "abundance fitness": "-0.533 ± 0.077"}, {"variant": "KILMCPEHETERINMYCELCRRPVCHLCCLGGNHANHRVTTMSSA", "note": "[K29C]", "abundance fitness": "-0.07 ± 0.074"}, {"variant": "KILMCPEHETERINMYCELCRRPVCHLCILGGNHANHRVTTMSSA", "note": "[K29I]", "abundance fitness": "-0.13 ± 0.064"}, {"variant": "KILMCPEHETERINMYCELCRRPVCHLCVLGGNHANHRVTTMSSA", "note": "[K29V]", "abundance fitness": "0.004 ± 0.054"}, {"variant": "KILMCPEHETERINMYCELCRRPVCHLCELGGNHANHRVTTMSSA", "note": "[K29E]", "abundance fitness": "0.048 ± 0.054"}, {"variant": "KILMCPEHETERINMYCELCRRPVCHLCGLGGNHANHRVTTMSSA", "note": "[K29G]", "abundance fitness": "-0.009 ± 0.048"}, {"variant": "KILMCPEHETERINMYCELCRRPVCHLCLLGGNHANHRVTTMSSA", "note": "[K29L]", "abundance fitness": "0.039 ± 0.055"}, {"variant": "KILMCPEHETERINMYCELCRRPVCHLCSLGGNHANHRVTTMSSA", "note": "[K29S]", "abundance fitness": "0.003 ± 0.055"}, {"variant": "KILMCPEHETERINMYCELCRRPVCHLCNLGGNHANHRVTTMSSA", "note": "[K29N]", "abundance fitness": "0.072 ± 0.084"}, {"variant": "KILMCPEHETERINMYCELCRRPVCHLCPLGGNHANHRVTTMSSA", "note": "[K29P]", "abundance fitness": "-0.043 ± 0.065"}, {"variant": "KILMCPEHETERINMYCELCRRPVCHLCWLGGNHANHRVTTMSSA", "note": "[K29W]", "abundance fitness": "-0.12 ± 0.07"}, {"variant": "KILMCPEHETERINMYCELCRRPVCHLCDLGGNHANHRVTTMSSA", "note": "[K29D]", "abundance fitness": "0.126 ± 0.12"}, {"variant": "KILMCPEHETERINMYCELCRRPVCHLCFLGGNHANHRVTTMSSA", "note": "[K29F]", "abundance fitness": "0.001 ± 0.096"}, {"variant": "KILMCPEHETERINMYCELCRRPVCHLCRLGGNHANHRVTTMSSA", "note": "[K29R]", "abundance fitness": "-0.025 ± 0.051"}, {"variant": "KILMCPEHETERINMYCELCRRPVCHLCHLGGNHANHRVTTMSSA", "note": "[K29H]", "abundance fitness": "-0.066 ± 0.075"}, {"variant": "KILMCPEHETERINMYCELCRRPVCHLCYLGGNHANHRVTTMSSA", "note": "[K29Y]", "abundance fitness": "-0.012 ± 0.063"}, {"variant": "KILMCPEHETERINMYCELCRRPVCHLCALGGNHANHRVTTMSSA", "note": "[K29A]", "abundance fitness": "0.012 ± 0.047"}, {"variant": "KILMCPEHETERINMYCELCRRPVCHLCQLGGNHANHRVTTMSSA", "note": "[K29Q]", "abundance fitness": "0.019 ± 0.074"}, {"variant": "KILMCPEHETERINMYCELCRRPVCHLCMLGGNHANHRVTTMSSA", "note": "[K29M]", "abundance fitness": "-0.057 ± 0.057"}, {"variant": "KILMCPEHETERINMYCELCRRPVCHLCTLGGNHANHRVTTMSSA", "note": "[K29T]", "abundance fitness": "-0.009 ± 0.063"}, {"variant": "KILMCPEHETERINMYCELCRRPVCGLCKLGGNHANHRVTTMSSA", "note": "[H26G]", "abundance fitness": "0.049 ± 0.058"}, {"variant": "KILMCPEHETERINMYCELCRRPVCELCKLGGNHANHRVTTMSSA", "note": "[H26E]", "abundance fitness": "-0.022 ± 0.064"}, {"variant": "KILMCPEHETERINMYCELCRRPVCWLCKLGGNHANHRVTTMSSA", "note": "[H26W]", "abundance fitness": "-0.324 ± 0.08"}, {"variant": "KILMCPEHETERINMYCELCRRPVCQLCKLGGNHANHRVTTMSSA", "note": "[H26Q]", "abundance fitness": "0.045 ± 0.063"}, {"variant": "KILMCPEHETERINMYCELCRRPVCLLCKLGGNHANHRVTTMSSA", "note": "[H26L]", "abundance fitness": "-0.161 ± 0.055"}, {"variant": "KILMCPEHETERINMYCELCRRPVCFLCKLGGNHANHRVTTMSSA", "note": "[H26F]", "abundance fitness": "-0.307 ± 0.24"}, {"variant": "KILMCPEHETERINMYCELCRRPVCDLCKLGGNHANHRVTTMSSA", "note": "[H26D]", "abundance fitness": "0.04 ± 0.085"}, {"variant": "KILMCPEHETERINMYCELCRRPVCMLCKLGGNHANHRVTTMSSA", "note": "[H26M]", "abundance fitness": "-0.237 ± 0.056"}, {"variant": "KILMCPEHETERINMYCELCRRPVCCLCKLGGNHANHRVTTMSSA", "note": "[H26C]", "abundance fitness": "0.01 ± 0.065"}, {"variant": "KILMCPEHETERINMYCELCRRPVCVLCKLGGNHANHRVTTMSSA", "note": "[H26V]", "abundance fitness": "-0.016 ± 0.061"}, {"variant": "KILMCPEHETERINMYCELCRRPVCPLCKLGGNHANHRVTTMSSA", "note": "[H26P]", "abundance fitness": "0.021 ± 0.091"}, {"variant": "KILMCPEHETERINMYCELCRRPVCYLCKLGGNHANHRVTTMSSA", "note": "[H26Y]", "abundance fitness": "0.343 ± 0.12"}, {"variant": "KILMCPEHETERINMYCELCRRPVCSLCKLGGNHANHRVTTMSSA", "note": "[H26S]", "abundance fitness": "0.004 ± 0.062"}, {"variant": "KILMCPEHETERINMYCELCRRPVCKLCKLGGNHANHRVTTMSSA", "note": "[H26K]", "abundance fitness": "-0.384 ± 0.077"}, {"variant": "KILMCPEHETERINMYCELCRRPVCRLCKLGGNHANHRVTTMSSA", "note": "[H26R]", "abundance fitness": "-0.05 ± 0.055"}, {"variant": "KILMCPEHETERINMYCELCRRPVCTLCKLGGNHANHRVTTMSSA", "note": "[H26T]", "abundance fitness": "-0.226 ± 0.068"}, {"variant": "KILMCPEHETERINMYCELCRRPVCNLCKLGGNHANHRVTTMSSA", "note": "[H26N]", "abundance fitness": "-0.215 ± 0.078"}]}]}
